Results: patent publication US20250051443A1 (NATIONAL RESEARCH COUNCIL OF CANADA, published 2025)

Experiments:
human CD3 [1] = target: T1, human CD3 (human, UniProt P07766 23-207; P09693 23-182; P04234 22-171); assay: flow competition on Jurkat, 100 nM unlabeled mAb; competitor AF488-UCHT1 5 nM (self)
human CD3 [2] = target: T1, human CD3; assay: flow cytometry, AF488-labeled mAb on CD3+ Jurkat cells
human CD3 [3] = target: T1, human CD3; assay: flow competition on Jurkat, 100 nM unlabeled mAb; competitor AF488-SP34.2 20 nM
Protocol: (§1) In order to evaluate whether anti-CD3 monoclonal antibodies bind to the same epitope region, flow cytometry competition experiments on Jurkat cells were performed.
(§2) To that effect, a fixed concentration of the indicated AF488-labeled mAb were incubated with 100 nM of unlabeled monoclonal antibodies to assess if their binding capacity was impaired in presence of unlabeled mAbs. […] The AF488-OKT3 mIgG2b was labeled in-house using AlexaFluor488 protein labelling kit (Invitrogen #A10235) following manufacturer's instruction. The free dye removal step was done using Zeba™ Spin Desalting Columns, 7K MWCO (Thermo Scientific #89890). The final product was analyzed by UPLC-SEC to ensure the integrity of the labeled mAb.

human CD3 [4] = target: T1, human CD3; assay: flow competition on Jurkat, 100 nM unlabeled mAb; competitor AF488-SK7 1.5 nM
Protocol: as §1, §2

human CD3 [5] = target: T1, human CD3; assay: apparent KD (KDapp), flow cytometry titration on purified primary human T cells
Protocol: The binding characteristics of the purified anti-CD3 mAbs were assessed in titration studies on purified human primary T cells from different donor samples. Fresh ex vivo peripheral blood mononuclear cells (PBMCs) were obtained via density centrifugation over Ficoll-Paque using standard procedures and untouched T cell fractions obtained from PBMCs by negative pan-T cell selection and magnetic cell sorting. Starting from 300 nM concentrations of the anti-CD3 mAbs, eight point binding curves were generated from the resultant mean fluorescence intensity (MFI) values obtained through detection of labelled secondary antibody to bound CD3 in flow cytometry experiments (FIGS. 3A and 3B). Both commercial mouse anti-human CD3 mAb (OKT-3; Biolegend) and an in house generated IgG1 version of OKT-3 were employed as positive controls together with a non-specific mouse IgG serving as a negative binding control. Following curve fit analysis using one-site specific binding with Hill slope, the KDapp (concentration needed to achieve a half-maximum binding at equilibrium) for each mAb was calculated (Table 2).
Eight point binding titrations were performed with the anti-CD3 mAbs starting at either 300 or 100 nM on freshly purified human T cells obtained through negative selection from PBMC fractions. Briefly, 1×10⁵ human T cells (50 μL of staining buffer (SB; PBS/1% BSA/0.01% NaN3) were incubated with graded dilutions of the anti-CD3 mAbs in SB ([…]) for 2 hours at 4° C. in 96 w U-bottom plates, followed by plate washing with SB ([…]). Cell pellets were resuspended with 25 μL of a 0.25 mg/mL solution of the goat (Fab′)₂ anti-mouse IgG (H+L)− APC secondary antibody in SB, incubated at 4° C. (30 min.), washed 1× with SB, and resuspended for flow analysis. Recombinant anti-human OKT-3 IgG2b (in house produced) and non-specific mIgG were employed similarly as positive and negative controls respectively. 10K live events were acquired on a BD LSRFortessa flow analyzer and mean fluorescence intensities (MFI) calculated after subtraction of secondary antibody alone values. Using GraphPad Prism software, the data were analyzed using a one site specific binding with Hill slope non-linear regression model to calculate KDapp and BMax values (See Table 2).

human CD3 [6] = target: T1, human CD3; assay: cell-based or functional assay
human CD3 [7] = target: T1, human CD3; assay: apparent KD (KDapp), flow cytometry titration on Jurkat cells
Protocol: Unless otherwise stated, all media are kept are 4° C. and all incubations are performed on wet ice. Exponentially growing Jurkat cells were centrifuged and resuspended in complete medium at a cell density of 2×10⁶ cells/mL. Fifty μL/well of cells were distributed in a polypropylene v-bottom 96 well plate and serial 1/3 dilutions of purified mAbs starting at 300 nM were added and incubated for 2 hours. Cells were washed twice by centrifugation and further incubated with a FITC labeled F(ab′)2 goat anti-mouse antibody (Fc specific, #115-096-071, Jackson Immunoresearch, Cedarlane, Burlington, ON) for an hour. Cells were washed and re-suspended in medium containing Propidium iodide to exclude dead cells from analysis. Samples were filtered through a 60 μm nylon mesh filter plate (Millipore, Ireland) to remove cell aggregates. Flow cytometry analyses were performed on 2,000 viable single-cells events gated on forward scattering, side scattering parameters and propidium iodide dye exclusion using a BD-LSRFortessa flow cytometer (Becton-Dickinson Biosciences, CA, USA) and a standard filter set using BD FACSDiva™ acquisition software, according to manufacturer's instructions.

human CD3 [8] = target: T1, human CD3; assay: flow competition on Jurkat, 100 nM unlabeled mAb; competitor AF488-UCHT1 5 nM
Protocol: as §1, §2

human CD3 [9] = target: T1, human CD3; assay: flow competition on Jurkat, 100 nM unlabeled mAb; competitor AF488-OKT-3 mIgG2b 1.5 nM (self)
human CD3 [10] = target: T1, human CD3; assay: flow competition on Jurkat, 100 nM unlabeled mAb; competitor AF488-SP34.2 20 nM (self)
human CD3 [11] = target: T1, human CD3; assay: apparent KD (KDapp), flow cytometry titration of the AF488-labeled mAb on Jurkat cells
Cynomolgus CD3 = target: T2, Cynomolgus CD3 (Cynomolgus, UniProt Q95LI5 22-198; Q95LI7 23-181; Q95LI8 22-171); assay: apparent KD (KDapp), flow cytometry titration on cynomolgus HSC-F T cell line
T2 construct: whole, on cells; also called CD3 on Cynomolgus PBMCs; CD3 on HSC-F Cynomolgus T cell line
Protocol: To characterize potential cross-reactivity of the anti-human CD3 mAbs to NHP T cells, dose response flow cytometry titration studies were performed on both freshly obtained Cynomolgus PBMCs (Comparative Medicine and Animal Resources Centre—McGill University) or the Cynomolgus derived T cell line, HSC-F (Non-Human Primate Reagent Resource—NIH). Binding studies on fresh Cynomolgus PBMCs was performed on a subset of anti-CD3 mAbs (FIG. 4) whereas the Herpesvirus saimiri immortalized Cynomolgus T cell line HSC-F was employed for further evaluations (FIGS. 5A to 5C). KDapp values were calculated using a non-linear regression model of one-site binding with Hill slope (GraphPad Prism) and tabulated (Table 3b). Similar KDapp values for anti-CD3 mAb 1E2 obtained from binding to fresh Cynomolgus PBMCs (KDapp=0.28 nM) or the HSC-F T cell line (KDapp=0.39 nM) indicated the HSC-F cell line was a suitable surrogate for ex vivo NHP T cells.
HSC-F T cells obtained from the Non-Human Primate Reagent Resource (NIH) were maintained in culture in RPMI media containing 20% FBS and 40 IU/mL recombinant human IL2. 100K HSC-F cells in logarithmic cell growth were treated with graded doses of the anti-CD3 mAbs starting at 100 nM in staining buffer (SB; PBS/1% BSA/0.01% NaN3) for 2 hours at 4° C. in 96 w V-bottom plates. Following plate washing with SB, the cell pellets were resuspended with 25 μL of goat (Fab′)₂ anti-mouse IgG (H+L)− APC secondary antibody (final 5 μg/mL), incubated for 30 minutes at 4° C., followed by flow cytometry analysis. The commercial NHP cross-reactive SP34.2 anti-CD3 mAb (BD Biosciences), recombinant anti-human OKT-3 IgG2b (in house produced) and non-specific mIgG were employed as controls. 20K live events were acquired on a BD LSRFortessa flow analyzer and mean fluorescence intensities (MFI) calculated after subtraction of secondary antibody alone values. Using GraphPad Prism software, the data were analyzed using a one site specific binding with Hill slope non-linear regression model to calculate KDapp and BMax values (See Table 2).

human CD3 [12] = target: T1, human CD3; assay: flow cytometry, negative control on CD3+ Jurkat cells
human CD3 [13] = target: T1, human CD3; assay: flow competition on Jurkat, 100 nM unlabeled mAb; competitor AF488-SK7 1.5 nM (self)

Substance	MFI (human CD3 [2])	% residual fluorescence of labeled mAb (human CD3 [3])	% residual fluorescence of labeled mAb (human CD3 [4])	Kd (human CD3 [5])	% residual fluorescence of labeled mAb (human CD3 [8])	other results
recombinant mouse IgG2b OKT-3 produced in-house (antibody)	–	26%	6%	0.03 nM	11%	% max ref. OKT3 (dTomato activation) (human CD3 [6]): 105%; EC50 of dTomato induction (CD69 promoter), Jurkat-CD69-dTomato cells, 24 h (human CD3 [6]): 0.17 µg/mL; IC50, indirect ADC surrogate growth inhibition (anti-mouse-DM1) on Jurkat cells (human CD3 [6]): 0.057 nM; Span, indirect ADC surrogate growth inhibition on Jurkat cells (human CD3 [6]): 91%; Kd (human CD3 [7]): 0.13 to 0.23 nM; % residual fluorescence of labeled mAb (human CD3 [9]): 8%
Mouse IgG (antibody)	–	–	–	–	–	MFI (human CD3 [12]): 34 MFI

More lines, main results first:

MFI (human CD3 [2])	% residual fluorescence of labeled mAb (human CD3 [3])	% residual fluorescence of labeled mAb (human CD3 [4])	Kd (human CD3 [5])	% residual fluorescence of labeled mAb (human CD3 [8])	Substance	other results
293 MFI	54%	7%	–	–	UCHT1 (antibody)	% residual fluorescence of labeled mAb (human CD3 [1]): 8%
–	–	29%	1.77 nM	49%	SP34.2 (antibody)	% residual fluorescence of labeled mAb (human CD3 [10]): 10%; Kd (human CD3 [11]): 10.8 nM; Kd (Cynomolgus CD3): 1.29 nM
311 MFI	58%	–	–	14%	SK7 (antibody)	% residual fluorescence of labeled mAb (human CD3 [13]): 9%
